Test results: US20250043302A1, “MUTATED HYDROXYPHENYLPYRUVATE DIOXYGENASE POLYPEPTIDE, AND CODING GENE AND USE THEREOF” (BEIJING DABEINONG BIOTECHNOLOGY CO., LTD., priority 2021, published 2025)

Assays:
[1] = tested on: Arabidopsis thaliana T1 plants; test: Isoxaflutole tolerance of transgenic Arabidopsis thaliana T1 plants (spray, bleached leaf area grade, damage score); type: in vivo; conditions: Table 11; for Classification and statistics of the grade of pesticide damage Grade 0: number of plants at grade 0; for Classification and statistics of the grade of pesticide damage Grade 1: number of plants at grade 1; for Classification and statistics of the grade of pesticide damage Grade 2: number of plants at grade 2; for Classification and statistics of the grade of pesticide damage Grade 3: number of plants at grade 3; for Scores: pesticide damage score;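 on Scores: Weighted damage index from 0 to 100 where higher means more damage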
From the text: (§1) T1 transformants were initially selected from the untransformed seeds using a glufosinate selection scheme. The Arabidopsis thaliana T1 plants (AsHPPD-02) into which the AsHPPD-02 nucleotide sequence was introduced, the Arabidopsis thaliana T1 plants (AsHPPDm-F372A-02) into which the AsHPPDm-F372A-02 nucleotide sequence was introduced, the Arabidopsis thaliana T1 plants (AsHPPDm-F383W-02) into which the AsHPPDm-F383W-02 nucleotide sequence was introduced, the Arabidopsis thaliana T1 plants (AsHPPDm-F372A-F383W-02) into which the AsHPPDm-F372A-F383W-02 nucleotide sequence was introduced, the Arabidopsis thaliana T1 plants (DBN11726N) into which the control recombinant expression vector DBN11726N was introduced, and the wild-type Arabidopsis thaliana plants (CK) (18 days after sowing) were sprayed respectively with topramezone at three concentrations (100 g ai/ha (four-fold field concentration, 4×), 200 g ai/ha (eight-fold field concentration, 8×), and 0 g ai/ha (water, 0×)), isoxaflutole at three concentrations (140 g ai/ha (two-fold field concentration, 2×), 280 g ai/ha (four-fold field concentration, 4×), and 0 g ai/ha (water, 0×)), and mesotrione at three concentrations (210 g ai/ha (two-fold field concentration, […]), 420 g ai/ha (four-fold field concentration, 4×), and 0 g ai/ha (water, 0×)), to determine the tolerance of Arabidopsis thaliana to the herbicides. The degree of damage caused by the herbicide was measured for each plant according to the proportion of bleached leaf area (the proportion of bleached leaf area=bleached leaf area/total leaf area×100%) 7 days after spraying (7 DAT): the case where there is basically no bleached phenotype is defined as grade 0, the case where the proportion of bleached leaf area is less than 50% is defined as grade 1, the case where the proportion of bleached leaf area is more than 50% is defined as grade 2, and the case where the proportion of bleached leaf area is 100% grade is defined as grade 3.
(§2) According to the method as described above in point 6 of Example 1, the aforementioned Arabidopsis thaliana T1 plants and wild-type Arabidopsis thaliana plants (CK) (18 days after sowing) were sprayed respectively with topramezone at three concentrations (25 g ai/ha (one-fold field concentration, 1×). 100 g ai/ha (four-fold field concentration, 4×), and 0 g ai/ha (water, 0×)), isoxaflutole at three concentrations (35 g ai/ha (half-fold field concentration, 0.5×). 70 g ai/ha (one-fold field concentration, 1×), and 0 g ai/ha (water, 0×)), and mesotrione at three concentrations (52.5 g ai/ha (half-fold field concentration, 0.5×), 105 g ai/ha (one-fold field concentration, 1×), and 0 g ai/ha (water, 0×)) to detect the tolerance of Arabidopsis thaliana to the herbicides.
(§3) According to the method as described above in point 6 of Example 1, the aforementioned Arabidopsis thaliana T1 plants and wild-type Arabidopsis thaliana plants (CK) (18 days after sowing) were sprayed with topramezone at three different concentrations (i.e., 100 g ai/ha (four-fold field concentration, 4×), 200 g ai/ha (eight-fold field concentration, 8×) and 0 g ai/ha (water, 0×)), isoxaflutole at three different concentrations (i.e., 140 g ai/ha (two-fold field concentration, 2×), 280 g ai/ha (four-fold field concentration, 4×) and 0 g ai/ha (water, 0×)), and mesotrione at three different concentrations (i.e., 210 g ai/ha (two-fold field concentration, 2×), 420 g ai/ha (four-fold field concentration, 4×) and 0 g ai/ha (water, 0×)) respectively to detect the herbicide tolerance of Arabidopsis thaliana. […]

[2] = tested on: Arabidopsis thaliana T1 plants; test: Mesotrione tolerance of transgenic Arabidopsis thaliana T1 plants (spray, bleached leaf area grade, damage score); type: in vivo; set-up: Scores: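 damage score 0-100 computed as Σ(N×S)/(T×M)×100 over grades 0-3 with higher meaning more damage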; conditions: Table 12; for Classification and statistics of the grade of pesticide damage Grade 0: number of plants at grade 0; for Classification and statistics of the grade of pesticide damage Grade 1: number of plants at grade 1; for Classification and statistics of the grade of pesticide damage Grade 2: number of plants at grade 2; for Classification and statistics of the grade of pesticide damage Grade 3: number of plants at grade 3; for Scores: pesticide damage score
From the text: as §1, §2, §3

B1: AsHPPDm-A107-F372A-02: nucleotide sequence encoding Avena sativa HPPD with A107 deletion+F372A; vector DBN11778 (nucleic acid)
DNA: ATGCCACCTACTCCAGCTACAGCTACTGGTGCTGCTGCTGCTGCCGTTACTCCTGAGCACGCTGCCAGGTCATTCCCCAGGGTGGTTCGCGTGAACCCCAGATCTGATAGGTTCCCAGTTCTGAGCTTCCACCATGTTGAGCTGTGGTGCGCTGATGCTGCTTCTGCTGCTGGCAGGTTCTCTTTCGCTCTTGGTGCTCCACTCGCTGCTAGATCTGATCTGTCTACAGGAAATAGCGCTCATGCCTCACTCCTGCTTCGCTCAGGTGCTTTGGCCTTCCTCTTCACCGCTCCATATGCTCCCCCACCTCAGGAGGCTACTGCTGCTGCTACAGCCTCCATTCCAAGCTTCTCAGCTGATGCCGCTAGAACCTTCGCTGCTGCTCATGGACTTGCCGTGAGGTCTGTTGGTGTTCGCGTGGCTGATGCTGCTGAGGCTTTCAGAGTTTCCGTTGCCGGCGGAGCTAGGCCAGCTTTCGCTCCTGCTGATTTGGGACATGGTTTCGGCCTGGCTGAGGTTGAGCTTTACGGTGACGTGGTTCTCCGCTTCGTGTCTTACCCAGATGAGACTGACCTGCCTTTCCTTCCCGGCTTCGAGAGAGTTTCCTCTCCTGGTGCCGTGGATTACGGCCTGACAAGGTTCGACCACGTGGTTGGAAACGTTCCCGAGATGGCTCCAGTGATCGATTACATGAAGGGCTTCCTTGGATTCCATGAGTTCGCCGAGTTCACTGCTGAGGACGTGGGAACCACTGAGTCCGGTTTGAACTCTGTGGTTCTCGCCAACAATTCTGAGGCTGTTTTGCTCCCTCTGAATGAGCCTGTGCATGGAACCAAGAGGAGAAGCCAGATTCAAACTTACCTGGAGTACCACGGTGGCCCTGGAGTTCAGCATATCGCCCTTGCTTCTAATGATGTGTTGCGCACACTCAGAGAGATGCGCGCCAGAACCCCCATGGGAGGTTTCGAGTTCATGGCCCCACCACAGGCTAAGTACTACGAGGGCGTTAGAAGGATTGCTGGAGACGTGTTGAGCGAGGAGCAGATCAAGGAGTGCCAAGAGCTGGGTGTTCTTGTGGATAGGGATGACCAGGGCGTTCTGCTTCAAATTGCCACTAAGCCAGTGGGCGACCGCCCTACATTCTTCCTTGAGATGATTCAAAGAATCGGCTGCATGGAGAAGGATGAGGTTGGACAGGAGTACCAAAAGGGCGGATGCGGTGGCTTCGGAAAGGGTAACTTCAGCGAGTTGTTCAAGTCAATCGAGGACTACGAGAAGAGCCTCGAGGTGAAGCAGTCAGTGGTTGCCCAAAAGTCCTGA
modifications: AsHPPDm-A107-F372A-02 Nucleotide Sequence
notes: vector DBN11778
Resistance evaluation ([1]; isoxaflutole 140 g ai/ha (2×)): Moderately | Classification and statistics of the grade of pesticide damage Grade 0 ([1]; isoxaflutole 140 g ai/ha (2×)): 5 | Classification and statistics of the grade of pesticide damage Grade 1 ([1]; isoxaflutole 140 g ai/ha (2×)): 7 | Classification and statistics of the grade of pesticide damage Grade 2 ([1]; isoxaflutole 140 g ai/ha (2×)): 4 | Classification and statistics of the grade of pesticide damage Grade 3 ([1]; isoxaflutole 140 g ai/ha (2×)): 0 | Scores ([1]; isoxaflutole 140 g ai/ha (2×)): 31 | Resistance evaluation ([1]; isoxaflutole 280 g ai/ha (4×)): Poorly resistant | Classification and statistics of the grade of pesticide damage Grade 0 ([1]; isoxaflutole 280 g ai/ha (4×)): 0 | Classification and statistics of the grade of pesticide damage Grade 1 ([1]; isoxaflutole 280 g ai/ha (4×)): 1 | Classification and statistics of the grade of pesticide damage Grade 2 ([1]; isoxaflutole 280 g ai/ha (4×)): 15 | Classification and statistics of the grade of pesticide damage Grade 3 ([1]; isoxaflutole 280 g ai/ha (4×)): 0 | Scores ([1]; isoxaflutole 280 g ai/ha (4×)): 65 | Resistance evaluation ([2]; mesotrione 210 g ai/ha (2×)): Moderately | Classification and statistics of the grade of pesticide damage Grade 0 ([2]; mesotrione 210 g ai/ha (2×)): 6 | Classification and statistics of the grade of pesticide damage Grade 1 ([2]; mesotrione 210 g ai/ha (2×)): 7 | Classification and statistics of the grade of pesticide damage Grade 2 ([2]; mesotrione 210 g ai/ha (2×)): 1 | Classification and statistics of the grade of pesticide damage Grade 3 ([2]; mesotrione 210 g ai/ha (2×)): 2 | Scores ([2]; mesotrione 210 g ai/ha (2×)): 31 | Resistance evaluation ([2]; mesotrione 420 g ai/ha (4×)): Poorly resistant | Classification and statistics of the grade of pesticide damage Grade 0 ([2]; mesotrione 420 g ai/ha (4×)): 1 | Classification and statistics of the grade of pesticide damage Grade 1 ([2]; mesotrione 420 g ai/ha (4×)): 7 | Classification and statistics of the grade of pesticide damage Grade 2 ([2]; mesotrione 420 g ai/ha (4×)): 8 | Classification and statistics of the grade of pesticide damage Grade 3 ([2]; mesotrione 420 g ai/ha (4×)): 0 | Scores ([2]; mesotrione 420 g ai/ha (4×)): 48
